The source of these data is patent US20250129140A1, “ANTI-HCMV ANTIBODIES AND ANTIGEN-BINDING FRAGMENTS THEREOF” (ICAHN SCHOOL OF MEDICINE AT MOUNT SINAI, priority 2021, published 2025).

Assay [1] concerns HCMV AD169R. The assay is described as follows: FFU assay in ARPE-19 cells in combination with ganciclovir. The class given is cell-based, Human cytomegalovirus. As to conditions: combined with ganciclovir (2.5 μM); antibody 10 μg/mL; Day 12. As to the method: Relative number of plaques present 12 dpi in ARPE-19 cells infected with AD169R. Infection was performed in the presence of antibody at three different concentrations +/−ganciclovir (2.5 μM). On day 12 post infection GFP images were taken and the plaque number was calculated relative to virus alone controls on each plate. M2E10 and CytoGam® were used as negative and positive controls respectively. Each condition was done in triplicate and 10,000 μm^2 was used as a cutoff for plaque area.
ARPE-19 or NHDF cells were plates at 50,000 cells per well in a 24 well and infected the following day. TB40/E (MOI 0.01) and AD169RBAD^rUL131 (MOI 0.1 & 0.01) was incubated with either 10 μg/mL or 0.5 μg/mL of antibody one hour prior to addition to cells. Following a 2 hr incubation at 37° C., 5% CO2 the inoculum was removed, and cells were overlaid with 1% low melt temperature sea agarose overlay. The overlay was allowed to solidify at room temp and then 500 μL of media was added before cells were put back into the incubator. […]
To test efficacy of the gH antibodies in combination with ganciclovir, the FFU assay was performed in ARPE-19 cells. […] M2E10 and CytoGam® were used as negative and positive controls respectively and the relative number of plaques was calculated based on cells which received virus alone without any antibody (black bar for each graph). […]

Assay [2] has as its system recombinant HCMV pentamer (strain VR1814) consisting of gH, gL, UL128, UL130 and UL131A. The assay is described as follows: Biolayer interferometry (Octet RED) KD determination. The class given is binding, Human cytomegalovirus. As to the method: Biolayer interferometry assays were performed using the Octet RED instrument (ForteBio, Inc.) to determine the association (kon) and dissociation (kdis) constants for each antibody. Purified monoclonal antibody was loaded onto the anti-mouse Fc IgG capture (AMC) biosensors using 5-fold dilutions (50-0.016 μg/mL in PBS) for 10 minutes. To determine the kon, the sensors were exposed to the recombinant HCMV pentamer (strain VR1814) consisting of gH, gL, UL128, UL130 and UL131A (Native Antigen, CMV-PENT-100) at a constant concentration of 100 μg/mL in PBS for 3 minutes. To determine the kdis, dissociation was measured over the course of 3 minutes while the sensors were in PBS buffer. KD values were calculated as a ratio of […].
To examine this further, 293 Expi cells were transfected with wildtype gH, wildtype gL, cotransfected with gH and gL (gH+gL), transfected with a single plasmid expressing both gH and gL (gH/gL) or co-transfected a variety of gH mutants and gL. Three days post transfection the cells were harvested and stained with unlabeled primary at 0.5 μg/mL using the antibodies indicated. Transfection efficiency was determined by measuring GFP expression on day 3 and binding was determined by percent Alexa Fluor 647 positive cells using a conjugated secondary. […] The binding profile for 1G9 is most similar to 10F8. Although the ratios of gH, gL and gO plasmid were 1:1:1 it is not certain how efficiently the trimer was assembled following transfection. […] To discern minute differences in antibody binding biolayer interferometry was used, immobilizing each of the purified monoclonal antibodies (50-0.016 μg/mL) onto anti-mouse IgG Fc capture (AMC) biosensors and exposing the sensors to recombinant pentamer (100 μg/mL).

The next assay relates to HCMV. Put plainly: Virus neutralization, summary statements across cell types and strains. The class given is cell-based, Human cytomegalovirus. Particulars: MRC5; TB40/E, AD169R, TR, Towne.
The subject of assay [3] is HCMV AD169R. The assay is described as follows: Neutralization by fully human versus chimeric antibody versions. The class given is cell-based, Human cytomegalovirus. As to conditions: fully human (hu) version, human IgG1 Fc. The procedure:
Increasing concentrations of monoclonal antibodies (0.016-50 μg/mL) were incubated with AD169R (MOI 0.2) to assess neutralizing capacity. Percent infection was quantified using GFP expression at 18 hpi and normalized based on infection with virus alone (no antibody). CMV hyperimmune globulin (CytoGam®) was used as a control (trace on the upper right in FIGS. 8A, 8B, 8C, and 8D). FIG. 8A. […] FIG. 8B. Fully human (hu, comprising human variable and human constant regions) and chimeric (ms, comprising human variable and murine constant regions) versions of 9A12. FIG. 8C. Fully human (hu, comprising human variable and human constant regions) and chimeric (ms, comprising human variable and murine constant regions) versions of 13G1. FIG. 8D. Fully human (hu, comprising human variable and human constant regions) and chimeric (ms, comprising human variable and murine constant regions) versions of 14E1.
For this, the mouse Fc region of these mAbs was replaced with the human IgG1 Fc region.

For another assay, the system named is TB40/E UL32-eGFP virus. The assay is described as follows: Virus attachment assay on ARPE-19 cells. The class given is cell-based, Human cytomegalovirus. Particulars: 10 μg/mL, 0 or 120 minutes. As to the method: ARPE-19 cells were plated in glass bottom 12 well plates the day before infection. […] Infection occurred at 37° C. for 0-2 hrs before cells were washed using a citrate wash buffer (pH 3.2) for two minutes at RT. Cells were then washed with PBS and fixed in 4% PFA for 20 minutes at RT before being stained with Hoechst. Plates were read using a Cytation 3 Cell Imaging Multi-Mode Reader (BioTek, Winooski, VT) and images were acquired using brightfield and the 405 and 488 nm lasers.
To visualize HCMV virion attachment and entry, a recombinant HCMV strain was used that expresses eGFP fused to the C terminus of the tegument protein pUL32. The tegument protein is tightly associated with the capsid and allows for visualization of virus entry by immunofluorescence. […] Cells were incubated with the virus/antibody for either 0 or 120 minutes before being washed with citrate buffer (pH 3.2) for two minutes and fixed with PFA.

B1: 15G11: anti-HCMV gH/gL monoclonal antibody, fusion 1; VH SEQ ID NO:52, VL SEQ ID NO:53; chimeric and fully human IgG1 versions (antibody, V domains shown)
VH: QVQLQESGPGLVKPSQTLSLTCTVSGGSISSGYYYWNWIRQHPGKGLECIGYIYYSGTTYYNPSLKSRLFISVDTSKNQFSLKLRSVTAADTAVYYCARGGLGAFDIWGQGTMVTVSS
VL: EIVLTQSPGTLSLSPGERATLSCRASQSVSSSYLAWYQQKPGQAPRLLIYGASSRAPGIPDRFSGTGSGTDFTLTISRLEPEDFAVYYCQQYGISPLTFGGGTKVEIK
modifications: IgG1 constant regions
notes: anti-HCMV gH/gL monoclonal antibody, fusion 1; chimeric and fully human IgG1 versions
Turning to B1, the reduction in plaques in the assay on HCMV AD169R [1] was 95%. Also, the “kdis” value in assay [2] (dissociation 3 minutes in PBS) was 8.69e-05 s⁻¹. Also, in assay [2] (recombinant pentamer), the “rank of binding constant within the panel” value was “strongest”. For the same molecule, the “neutralization of infection across all strains” value with HCMV was “consistently neutralized infection”. Also, the “IC50 of infection, version with human constant regions” value in the assay on HCMV AD169R [3] was determined as 0.37 µg/mL. The “number of virions bound to the cells” value with TB40/E UL32-eGFP virus was “did not significantly change”.
